Results on 2 substances are retold here after paper PMC3156124.

For one assay, the target named is GEP100 (UniProt Q6DN90). Nature of the assay: anti-HA (GEP100) IP, anti-V5 (VEGFR2) blot. As to conditions: reference: wild type VEGFR2-V5; sites Y951.
The target in another assay is GEP100 PH domain (UniProt Q6DN90). Nature of the assay: peptide dot-blot overlaid with GST-PH. As to conditions: reference: non-phosphorylated Tyr951 peptide; sites Y951.

With VEGFR2 (from UniProt P35968) 951F, the “binding against the reference” value with GEP100 was “lost”.
For “VEGFR2 Tyr951 peptide (from UniProt P35968) pY951 peptide”, the “binding against the reference” value with GEP100 PH domain is “gained”.
